Experimental data from publication PMC10397247.
Values belong to the binder of their own block, whether it stands above or below them.

Tests used:
Experiment in all cases: two-hybrid library CCmax;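 note: natural log of median RNA to DNA barcode read ratio; higher means stronger binding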
4H3939-AA = target: T1, 4H3939-AA; conditions: mean of both orientations
T1 chain: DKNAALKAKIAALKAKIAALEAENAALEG

4H3595-AA = target: T2, 4H3595-AA; conditions: mean of both orientations
T2 chain: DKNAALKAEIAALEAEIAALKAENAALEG

4H3969-AA = target: T3, 4H3969-AA; conditions: mean of both orientations
T3 chain: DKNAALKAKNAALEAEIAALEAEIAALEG

4H483-AA = target: T4, 4H483-AA; conditions: mean of both orientations
T4 chain: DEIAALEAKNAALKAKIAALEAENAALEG

4H464-AA = target: T5, 4H464-AA; conditions: mean of both orientations
T5 chain: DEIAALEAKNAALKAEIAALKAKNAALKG

4H380-AA = target: T6, 4H380-AA; conditions: mean of both orientations
T6 chain: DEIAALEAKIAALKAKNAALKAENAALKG

4H341-AA = target: T7, 4H341-AA; conditions: mean of both orientations
T7 chain: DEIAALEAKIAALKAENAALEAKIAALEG

4H3629-AA = target: T8, 4H3629-AA; conditions: mean of both orientations
T8 chain: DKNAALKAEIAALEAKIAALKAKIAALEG

4H3129-AA = target: T9, 4H3129-AA
T9 chain: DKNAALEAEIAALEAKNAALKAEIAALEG

4H3414-AA = target: T10, 4H3414-AA; conditions: mean of both orientations
T10 chain: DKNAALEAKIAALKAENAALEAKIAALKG

4H446-AA = target: T11, 4H446-AA; conditions: mean of both orientations
T11 chain: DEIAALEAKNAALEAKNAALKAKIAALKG

4H3782-AA = target: T12, 4H3782-AA; conditions: mean of both orientations
T12 chain: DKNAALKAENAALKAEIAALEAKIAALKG

4H63-AA = target: T13, 4H63-AA; conditions: mean of both orientations
T13 chain: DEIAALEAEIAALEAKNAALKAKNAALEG

4H536-AA = target: T14, 4H536-AA; conditions: mean of both orientations
T14 chain: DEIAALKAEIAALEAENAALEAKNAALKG

4H2725-AA = target: T15, 4H2725-AA; conditions: mean of both orientations
T15 chain: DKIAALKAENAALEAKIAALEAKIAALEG

4H3381-AA = target: T16, 4H3381-AA; conditions: mean of both orientations
T16 chain: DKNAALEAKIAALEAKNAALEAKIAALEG

4H3120-AA = target: T17, 4H3120-AA; conditions: mean of both orientations
T17 chain: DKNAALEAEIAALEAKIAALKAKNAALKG

4H797-AA = target: T18, 4H797-AA; conditions: mean of both orientations
T18 chain: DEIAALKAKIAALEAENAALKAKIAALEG

4H458-AA = target: T19, 4H458-AA; conditions: mean of both orientations
T19 chain: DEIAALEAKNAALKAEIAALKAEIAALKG

4H930-AA = target: T20, 4H930-AA; conditions: mean of both orientations
T20 chain: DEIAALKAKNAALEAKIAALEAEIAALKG

4H3130-AA = target: T21, 4H3130-AA; conditions: mean of both orientations
T21 chain: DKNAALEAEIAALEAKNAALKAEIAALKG

4H3016-AA = target: T22, 4H3016-AA; conditions: mean of both orientations
T22 chain: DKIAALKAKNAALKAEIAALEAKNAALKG

4H3697-AA = target: T23, 4H3697-AA; conditions: mean of both orientations
T23 chain: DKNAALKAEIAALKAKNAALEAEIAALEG

4H2438-AA = target: T24, 4H2438-AA
T24 chain: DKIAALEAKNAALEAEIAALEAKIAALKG

4H3165-AA = target: T25, 4H3165-AA; conditions: mean of both orientations
T25 chain: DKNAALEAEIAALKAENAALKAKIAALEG

4H909-AA = target: T26, 4H909-AA; conditions: mean of both orientations
T26 chain: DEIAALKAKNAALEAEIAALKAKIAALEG

4H3410-AA = target: T27, 4H3410-AA; conditions: mean of both orientations
T27 chain: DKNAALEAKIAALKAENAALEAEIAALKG

4H310-AA = target: T28, 4H310-AA; conditions: mean of both orientations
T28 chain: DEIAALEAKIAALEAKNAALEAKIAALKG

4H485-AA = target: T29, 4H485-AA; conditions: mean of both orientations
T29 chain: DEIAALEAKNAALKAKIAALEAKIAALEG

4H2649-AA = target: T30, 4H2649-AA; conditions: mean of both orientations
T30 chain: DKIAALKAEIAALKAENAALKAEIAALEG

4H629-AA = target: T31, 4H629-AA; conditions: mean of both orientations
T31 chain: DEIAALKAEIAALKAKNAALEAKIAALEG

4H891-AA = target: T32, 4H891-AA; conditions: mean of both orientations
T32 chain: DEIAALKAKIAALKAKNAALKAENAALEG

4H3009-AA = target: T33, 4H3009-AA; conditions: mean of both orientations
T33 chain: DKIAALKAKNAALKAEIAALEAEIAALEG

4H2698-AA = target: T34, 4H2698-AA; conditions: mean of both orientations
T34 chain: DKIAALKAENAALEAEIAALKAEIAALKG

4H3865-AA = target: T35, 4H3865-AA; conditions: mean of both orientations
T35 chain: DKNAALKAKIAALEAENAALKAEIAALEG

4H710-AA = target: T36, 4H710-AA
T36 chain: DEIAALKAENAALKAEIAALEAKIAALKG

4H570-AA = target: T37, 4H570-AA; conditions: mean of both orientations
T37 chain: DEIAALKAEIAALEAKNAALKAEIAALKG

4H94-AA = target: T38, 4H94-AA; conditions: mean of both orientations
T38 chain: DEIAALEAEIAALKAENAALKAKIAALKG

4H2473-AA = target: T39, 4H2473-AA; conditions: mean of both orientations
T39 chain: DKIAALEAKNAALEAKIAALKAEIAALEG

4H3590-AA = target: T40, 4H3590-AA; conditions: mean of both orientations
T40 chain: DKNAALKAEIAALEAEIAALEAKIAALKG

4H850-AA = target: T41, 4H850-AA; conditions: mean of both orientations
T41 chain: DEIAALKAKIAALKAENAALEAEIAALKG

4H3753-AA = target: T42, 4H3753-AA; conditions: mean of both orientations
T42 chain: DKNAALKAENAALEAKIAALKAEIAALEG

4H2865-AA = target: T43, 4H2865-AA; conditions: mean of both orientations
T43 chain: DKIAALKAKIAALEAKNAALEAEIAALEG

4H3395-AA = target: T44, 4H3395-AA; conditions: mean of both orientations
T44 chain: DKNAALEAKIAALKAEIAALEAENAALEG

4H745-AA = target: T45, 4H745-AA; conditions: mean of both orientations
T45 chain: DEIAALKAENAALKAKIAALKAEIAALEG

4H_APH = target: T46, 4H_APH
T46 chain: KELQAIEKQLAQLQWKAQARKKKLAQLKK

4H_BCR = target: T47, 4H_BCR; conditions: mean of both orientations
T47 chain: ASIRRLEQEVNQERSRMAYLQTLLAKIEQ

4H_GCN4 = target: 4H_GCN4
4H895-AA = target: T48, 4H895-AA; conditions: mean of both orientations
T48 chain: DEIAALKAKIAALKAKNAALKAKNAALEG

4H58-AA = target: T49, 4H58-AA
T49 chain: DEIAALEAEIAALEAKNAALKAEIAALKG

GCN2_T = target: GCN2_T

Chain of 4H_GCN4 (chain, as listed by the source): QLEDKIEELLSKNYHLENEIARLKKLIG

interaction score (4H3939-AA): -1.82
interaction score (4H3595-AA): -1.39
interaction score (4H3969-AA): -1.84
interaction score (4H483-AA): -2.19
interaction score (4H464-AA): -1.78
interaction score (4H380-AA): -1.83
interaction score (4H341-AA): 2.19
interaction score (4H3629-AA): -0.839
interaction score (4H3129-AA): -1.5
interaction score (4H3414-AA): 2.24
interaction score (4H446-AA): -2.05
interaction score (4H3782-AA): -1.55
interaction score (4H63-AA): -2.14
B1: 4H3129-AA (peptide)
chain: DKNAALEAEIAALEAKNAALKAEIAALEG

interaction score (4H536-AA): -1.47
interaction score (4H2725-AA): 1.32
interaction score (4H3381-AA): -1.06
interaction score (4H3120-AA): -0.892
interaction score (4H797-AA): -1.67
interaction score (4H458-AA): 2.03
interaction score (4H930-AA): 0.452
interaction score (4H3130-AA): -0.561
interaction score (4H3016-AA): -0.613
interaction score (4H3697-AA): -1.23
interaction score (4H2438-AA): 1.62
interaction score (4H3165-AA): -1.17
interaction score (4H909-AA): 0.42
interaction score (4H3410-AA): 0.0321
interaction score (4H310-AA): -0.376
interaction score (4H485-AA): 2.05
interaction score (4H2649-AA): -0.664
interaction score (4H629-AA): -1.42
interaction score (4H891-AA): -1.67
interaction score (4H3009-AA): 1.88
interaction score (4H2698-AA): 1.25
interaction score (4H3865-AA): -1.16
interaction score (4H710-AA): -0.823
interaction score (4H570-AA): 0.233
interaction score (4H94-AA): 1.28
interaction score (4H2473-AA): 1.99
interaction score (4H3590-AA): -0.136
interaction score (4H850-AA): 0.962
interaction score (4H3753-AA): 1.89
interaction score (4H2865-AA): -0.236
interaction score (4H3395-AA): 0.314
interaction score (4H745-AA): 1.6
B2: 4H2438-AA (peptide)
chain: DKIAALEAKNAALEAEIAALEAKIAALKG

interaction score (4H_APH): -1.68
interaction score (4H_BCR): -2.14
interaction score (4H_GCN4): 0.011
interaction score (4H895-AA): -0.545
interaction score (4H58-AA): 1.75
interaction score (GCN2_T): -0.172
B3: 4H58-AA (peptide)
chain: DEIAALEAEIAALEAKNAALKAEIAALKG
